We go through 140 substances from the supplement of paper PMC12042874.

± gives the uncertainty stated by the source.

The series can be described thus: amyloid nucleation score (Sup35N fusion, yeast selection) (log enrichment); library NNK2; higher = more nucleation; inactive = no reads after selection. The procedure, abridged: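 Random libraries were run with three technical output replicates. In each, psi-negative yeast expressing Sup35N fused to peptides of 20 random codons were induced 24 hours with 100 μM copper sulfate and grown 7 days at 30°C on medium lacking adenine and uracil, and input and output plasmid inserts were Illumina-sequenced. The nucleation score is the DiMSum log enrichment of output over input reads, centred on the mode score of non-aggregating sequences, and sequences under 100 input reads were excluded.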
Consider VGKVFLIPGSFYEIRLMTYF, for which the amyloid nucleation score came to 1.62 ± 0.13.

Substance VGLSPSSASTHLRN registered an amyloid nucleation score of 1.07 ± 0.33.

With VGRCTINFIRLRDWVRLRQN, the amyloid nucleation score was -0.082 ± 0.6.

The substance VGRVNIVSDLMVPNSHYICS yielded an amyloid nucleation score of -0.056 ± 0.76.

The substance VGSNKGAIIGLMIVGGVVIA yielded an amyloid nucleation score of 3.11 ± 0.16.

Consider VGSVICMFMCWFA, for which the amyloid nucleation score came out at 4.75 ± 0.036.

Consider VGWHPPVLTEYTMDQTAYTT, for which the amyloid nucleation score came out at 1.39 ± 0.29.

VHLGRV came in with an amyloid nucleation score of -0.678 ± 0.48.

VHLPCGYLKFRGLMYWRREL showed an amyloid nucleation score of 0.479 ± 0.34.

As for VHLSKDLCYLLSGYGYFPCF, the amyloid nucleation score was -0.216 ± 0.36.

VHQFADFNKIMNGLDDLLLK gave an amyloid nucleation score of 2.65 ± 0.081.

In turn, VIAFYVAFFNRTRVSYRSLW returned an amyloid nucleation score of 4.22 ± 0.06.

Turning to VICGLTPDRDAHMYLTIFWL, the amyloid nucleation score is 0.578 ± 0.81.

In turn, VIEYRVFRKYPCNCFLRGLS yielded an amyloid nucleation score of -0.865 ± 0.39.

VIFLVDNCCMACDSLEPRTI: the amyloid nucleation score was determined as 0.513 ± 0.25.

VIGASRRVWHRLKHKA showed an amyloid nucleation score of 0.994 ± 0.34.

VIHMVPMTEGGLPCTV returned an amyloid nucleation score of -0.139 ± 0.56.

Substance VIHSPQMLSWSSHGNARFSK returned an amyloid nucleation score of 0.628 ± 0.33.

In turn, VIKCLVPSLIKSFRRHWFNT registered an amyloid nucleation score of -0.708 ± 0.79.

VIKMVMEVPVTGFPRSRNSF came in with an amyloid nucleation score of -0.369 ± 1.1.

Take VILGVGKTTNFYSSFFIRVW: the amyloid nucleation score result was “inactive”.

VIMVTSPQFKKPKLYMDKRD: the amyloid nucleation score was -1.03 ± 0.54.

Consider VINSMY, for which the amyloid nucleation score was 1.11 ± 0.45.

VINTEVCIEGGRQVRPAPRL yielded an amyloid nucleation score of 1 ± 0.41.

On to VISKVSLDVCRCIRFLHYDS, for which the amyloid nucleation score worked out at 7.692 ± 0.061.

VISQRLFS: the amyloid nucleation score was -0.155 ± 0.74.

VIVVRNQRKFVTSDLPLKVC yielded an amyloid nucleation score of 1.04 ± 0.35.

For the substance VIYLHVYGCVNLVSVLVHSL, the amyloid nucleation score amounted to 1.87 ± 0.12.

VKALNH registered an amyloid nucleation score of 0.66 ± 0.33.

In the case of VKAVMWIDLVNRVIMNGHIS, the amyloid nucleation score was -0.461 ± 0.49.

VKCLGAFGDE: the amyloid nucleation score is -0.012 ± 1.1.

Substance VKINSTDMSMVQNCNYLIWV showed an amyloid nucleation score of -0.531 ± 1.1.

Turning to VKNCDWGIYIILSGFMRVTR, the amyloid nucleation score was -1.27 ± 1.1.

VKPVFWKLGWRDYLYSMRQF gave an amyloid nucleation score of -1.11 ± 0.3.

VKRYGINGGFNYSSYCTAGI: the amyloid nucleation score entry is “inactive”.

For the substance VKYRDIMSRGSVVRQNDKVS, the amyloid nucleation score entry was “inactive”.

For the substance VLAGLMVNSGVL, the amyloid nucleation score is -0.34 ± 0.3.

As for VLCSCCLVVNIVNVLSVHSY, the amyloid nucleation score stood at 8.363 ± 0.06.

The substance VLDFLVSCADYSWSLNNCES returned an amyloid nucleation score of -0.91 ± 0.76.

In turn, VLDTMYGTDIQRRTMGKANT registered an amyloid nucleation score of 0.391 ± 0.36.

For the substance VLELLGPIMSRKIFLKVGFC, the amyloid nucleation score entry was “inactive”.

For the substance VLHKNTKMANTWVHNPTEVE, the amyloid nucleation score is -0.328 ± 0.27.

Turning to VLINEHYGYRFFCFNCADGK, the amyloid nucleation score was 8.228 ± 0.036.

With VLIRSSDNWWAEGSGVLGSC, the amyloid nucleation score stood at 0.201 ± 1.

VLKKA: the amyloid nucleation score came out at 0.185 ± 0.8.

VLKVRHVFEGGTEVILQSNR registered an amyloid nucleation score of 2.22 ± 0.2.

For the substance VLLQNYAMVAFT, the amyloid nucleation score was -1.07 ± 0.45.

In the case of VLNISMLLWIYNTYGNDGKV, the amyloid nucleation score was found to be 8.029 ± 0.08.

Consider VLRNKVVCSYQLYLRWFGKD, for which the amyloid nucleation score turned out to be 1.64 ± 0.37.

Substance VLSSHRFNEAKMN had an amyloid nucleation score of -0.366 ± 0.41.

The substance VLTFRRMHD registered an amyloid nucleation score of 0.398 ± 0.65.

Consider VLWCGDLFAYLYMYVFSSNS, for which the amyloid nucleation score was found to be 7.516 ± 0.051.

As for VLWVS, the amyloid nucleation score result was “inactive”.

Regarding VLYGVCIVCCSWSMTSC, the amyloid nucleation score came to 0.959 ± 0.6.

Turning to VMCFNTMKC, the amyloid nucleation score was found to be 7.386 ± 0.044.

Substance VMFSVDHRLTQ returned an amyloid nucleation score of -0.354 ± 0.35.

Turning to VMFVTSV, the amyloid nucleation score came out at 0.201 ± 0.29.

As to VMGCFSIGGLGMGVPMVYSR, the amyloid nucleation score is 0.651 ± 0.44.

The substance VMGYGKRLMSHLGMKSRTRL registered an amyloid nucleation score of 0.468 ± 0.29.

Substance VMHFDLQICDRVHSRKSAPR had an amyloid nucleation score of 8.523 ± 0.038.

For VMHSYDYVTMGFRSRTDPFR, the amyloid nucleation score amounted to 3.05 ± 0.14.

In turn, VMIWVTA registered an amyloid nucleation score of 0.637 ± 0.25.

For the substance VMNHWCNVWSFPWTMVRTHQ, the amyloid nucleation score is 0.352 ± 0.31.

VMNVNSCGWVVRHNR displayed an amyloid nucleation score of 4.97 ± 0.1.

Regarding VMPIFNYWV, the amyloid nucleation score worked out at 0.121 ± 0.3.

In the case of VMYKAFFRYFGR, the amyloid nucleation score stood at 1.71 ± 0.24.

VNECSFYIIPQTAQWCLVV registered an amyloid nucleation score of 0.086 ± 0.5.

In turn, VNFRVGCLVSYMNVK displayed an amyloid nucleation score of 2.6 ± 0.13.

Turning to VNIWAVNICC, the amyloid nucleation score stood at 7.8 ± 0.048.

The substance VNNATKIGWSSMAIRDNKTI displayed an amyloid nucleation score of -0.142 ± 0.49.

VNQLYWILCAYMVLCVGRDA came in with an amyloid nucleation score of 4.54 ± 0.093.

The substance VNRIASKWVYLLMNEFYSI showed an amyloid nucleation score of -1.21 ± 0.61.

The substance VNWRLKHWLGEDDPLPVTSF yielded an amyloid nucleation score of -0.267 ± 0.63.

In turn, VPDGHWSTHRRFSYMQVLNW showed an amyloid nucleation score of -0.441 ± 1.1.

For VPIKGHNRHMMNYNSEKAGS, the amyloid nucleation score is -1.13 ± 0.76.

In turn, VPNFRS had an amyloid nucleation score of 4.16 ± 0.037.

VPSQASGTRACKHNWTVWLE showed an amyloid nucleation score of 1.33 ± 0.25.

Consider VPVFFGPFQYT, for which the amyloid nucleation score was -0.419 ± 0.63.

VQFPSVMFICRIARRRTY gave an amyloid nucleation score of 0.746 ± 0.67.

VQFRAHSCLLA gave an amyloid nucleation score of 0.841 ± 0.74.

With VQGPHSFNGVGCRPFSNERR, the amyloid nucleation score was -0.202 ± 1.1.

With VQLGVHV, the amyloid nucleation score stood at 0.14 ± 0.4.

Substance VQMYCRSSAQPRVAILAMSG displayed an amyloid nucleation score of 1.16 ± 0.12.

With VRCEESWGDIICD, the amyloid nucleation score entry was “inactive”.

The substance VRCGGVSFGSMWVLDSILVR had an amyloid nucleation score of 0.652 ± 0.15.

As for VRDFCRWASDVRCSNGWRVA, the amyloid nucleation score stood at 0.384 ± 0.65.

As for VRDLTCSNNITILFMHW, the amyloid nucleation score stood at 6.13 ± 0.079.

VREGSNRVSRFHNGWHQSGL yielded an amyloid nucleation score of -0.555 ± 0.79.

With VREYQSWPKGCCT, the amyloid nucleation score came to 4.78 ± 0.065.

Substance VRFVMNRSHHRSRWEAVAFN yielded an amyloid nucleation score of 0.255 ± 0.48.

The substance VRGPIGHLCICSAMSLGWIH gave an amyloid nucleation score of 2.67 ± 0.11.

VRHGMSIFSCYPVTPTRLER gave an amyloid nucleation score of 0.266 ± 0.38.

For VRLCKYENSSWLSFRFQVQG, the amyloid nucleation score came to 0.56 ± 0.39.

VRLLSFEINSWWLCACCRSV gave an amyloid nucleation score of 7 ± 0.076.

In the case of VRLPLIVYLKSAYTSPPWGS, the amyloid nucleation score is -0.702 ± 1.1.

Turning to VRLSWCNMFNRVFPI, the amyloid nucleation score amounted to 0.3 ± 0.8.

The substance VRMSSRRS gave an amyloid nucleation score of 1.24 ± 0.36.

In turn, VRNGMANKGNDGRAAWEVNG came in with an amyloid nucleation score of 1.25 ± 0.21.

VRNSCSTLLYASVESVFWI showed an amyloid nucleation score of 3.28 ± 0.048.

VRQYPSTVPSLWLYVGSRH registered an amyloid nucleation score of 4.19 ± 0.069.

Substance VRRMRG came in with an amyloid nucleation score of 1.18 ± 0.42.

Consider VRSLN, for which the amyloid nucleation score was 0.058 ± 0.6.

For VRWTTFRECWAGYGGYVIGR, the amyloid nucleation score stood at 1.19 ± 0.17.

The substance VRYDGSKAFEVYMNQIENGS displayed an amyloid nucleation score of -0.905 ± 0.33.

As for VRYFGDILFMSALYNLAGFA, the amyloid nucleation score entry was “inactive”.

In the case of VSAGVTREGLEVGTVFGP, the amyloid nucleation score stood at 0.379 ± 0.44.

VSAGWSTST yielded an amyloid nucleation score of 3 ± 0.09.

Regarding VSDACRLDYLLAHILELGSM, the amyloid nucleation score was -1.08 ± 0.78.

In turn, VSHRG came in with an amyloid nucleation score of 2.37 ± 0.076.

As for VSIVRYIFSPNWFVTIASIY, the amyloid nucleation score was -1.51 ± 0.49.

In turn, VSKLNLLNIHCAKPFLLEL yielded an amyloid nucleation score of 3.38 ± 0.13.

Take VSLLNGYGAHSDMSAVGRRR: the amyloid nucleation score was 0.649 ± 0.47.

VSLNCKRRALMTWYVKGLFG showed an amyloid nucleation score of -0.073 ± 0.22.

Substance VSNPSSQMNC gave an amyloid nucleation score of 0.042 ± 0.16.

With VSNYMIVKIQWFHIVVGPGL, the amyloid nucleation score is 5.598 ± 0.031.

VSPALK registered an amyloid nucleation score of -0.055 ± 1.1.

Regarding VSRII, the amyloid nucleation score result was “inactive”.

On to VSSHNCWFFRGSGWFLFHHW, for which the amyloid nucleation score entry was “inactive”.

VSSPLAWKFLVNKICISDGG: the amyloid nucleation score result is “inactive”.

In turn, VSTILYLDY registered an amyloid nucleation score of 0.218 ± 1.1.

On to VSTTLTCEMLSVAVLFT, for which the amyloid nucleation score worked out at 0.886 ± 0.3.

The substance VSVVFNARPHRDSHNPSAER registered an amyloid nucleation score of 6.129 ± 0.054.

Turning to VSVWYGGLVRVRSTWCKIKF, the amyloid nucleation score was determined as 1.13 ± 0.13.

As to VSYPVCMGKWHGSTRILNRH, the amyloid nucleation score is 0.669 ± 0.27.

The substance VSYVYVKGFGVWFLCTCSPR displayed an amyloid nucleation score of 5.74 ± 0.072.

In turn, VTAAIIVFCNGVLVRWTFIM had an amyloid nucleation score of -0.99 ± 1.

Turning to VTCCVTSEWVGFLDWWSDRQ, the amyloid nucleation score amounted to 10.13 ± 0.043.

VTDYYYLCKFKSRVP gave an amyloid nucleation score of -0.799 ± 0.78.

VTFCMQVRAG displayed an amyloid nucleation score of 0.524 ± 0.33.

In turn, VTFFTAFLTFVYCCMMLMYM gave an amyloid nucleation score of 7.32 ± 0.078.

In the case of VTGDMTLFAWNLMGA, the amyloid nucleation score turned out to be 0.625 ± 0.43.

In the case of VTGNKEVMKIRCWVAHEESD, the amyloid nucleation score was found to be 1.32 ± 0.37.

Turning to VTIIVLPANVMLMWVFCYMY, the amyloid nucleation score is -0.93 ± 0.78.

VTNSVSHIVDCCAHSERVWV: the amyloid nucleation score is 0.111 ± 0.39.

Substance VTPDLDCLRDNDMVCGGPDQ displayed an amyloid nucleation score of 0.171 ± 0.23.

VTRPMDDTRVRVSNCVDWII yielded an amyloid nucleation score of 0.511 ± 0.38.

With VTSICNPDVIMEEKLGDNRG, the amyloid nucleation score was -0.416 ± 0.28.

Substance VTVCC gave an amyloid nucleation score of 1.69 ± 0.2.

VTVNE came in with an amyloid nucleation score of 0.711 ± 0.21.

VTYFTILNHMCW came in with an amyloid nucleation score of 6.602 ± 0.04.
